What follows are sequences tested against T1, 6xHis-PA3225 (Pseudomonas aeruginosa UCBPP-PA14) (UniProt A0A0H2ZDR5) (assay: competition).
T1 sequence: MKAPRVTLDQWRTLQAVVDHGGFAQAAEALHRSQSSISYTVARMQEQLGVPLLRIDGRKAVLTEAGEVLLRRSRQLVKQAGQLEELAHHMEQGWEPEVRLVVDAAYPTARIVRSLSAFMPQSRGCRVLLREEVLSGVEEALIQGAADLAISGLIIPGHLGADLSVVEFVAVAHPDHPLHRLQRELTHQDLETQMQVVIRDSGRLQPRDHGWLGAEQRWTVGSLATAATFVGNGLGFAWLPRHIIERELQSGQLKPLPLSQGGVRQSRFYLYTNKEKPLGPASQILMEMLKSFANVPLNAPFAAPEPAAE
“TAGTTGACTGGATCAACCACATTTACATTAGGTTTACTCGGCCAAACCAATGAACTACCCCGTGAATCCCGACCTGATGCCCGCGCTGATGGCGGTCTTCCAGCATGTACGGACGCGCATCCAGAGCGAGCTCGATT (double strand) [PmexAB-oprM probe 2 unlabeled]” was tested, and the binding was “no binding”. For “ATGGCTGGCGTTCGTTGCATAGCGTTGTCCTCATGAGCGAAAGCGGCCGATGCAGCGTGAAGGCGCTGCACCGGCTCGAAGAAGGCAGGCAAAATACTTACATTCATAGGTGTTTGTAAACGTCCGAAAGC (double strand) [PmexAB-oprM probe 4 unlabeled]”, the binding was “no binding”. “ATGTGGTTGATCCAGTCAACTATTTTGCTTATTTTAGTTGACCTTATCAACCTTGTTTCAGGTTCTGAATATGGGCCATGGCGCCGGGTGGATAACCGGCCATCGAGCTAAAACGTTTCAGGTGTTTTCACGCGAGGCTTTCGGACGTTTACA (double strand) [PmexAB-oprM probe 3 unlabeled]” was tested, and the binding was “binds”.

What follows are sequences tested against T1, 6xHis-PA3225 (Pseudomonas aeruginosa UCBPP-PA14) (assay: EMSA).
“ATGGCTGGCGTTCGTTGCATAGCGTTGTCCTCATGAGCGAAAGCGGCCGATGCAGCGTGAAGGCGCTGCACCGGCTCGAAGAAGGCAGGCAAAATACTTACATTCATAGGTGTTTGTAAACGTCCGAAAGC (double strand) [Cy5-PmexAB-oprM probe 4]” was tested, and the binding was “no binding”. In the case of “ATGTGGTTGATCCAGTCAACTATTTTGCTTATTTTAGTTGACCTTATCAACCTTGTTTCAGGTTCTGAATATGGGCCATGGCGCCGGGTGGATAACCGGCCATCGAGCTAAAACGTTTCAGGTGTTTTCACGCGAGGCTTTCGGACGTTTACA (double strand) [Cy5-PmexAB-oprM probe 3]”, the binding is reported as “binds”. In the case of “TAGTTGACTGGATCAACCACATTTACATTAGGTTTACTCGGCCAAACCAATGAACTACCCCGTGAATCCCGACCTGATGCCCGCGCTGATGGCGGTCTTCCAGCATGTACGGACGCGCATCCAGAGCGAGCTCGATT (double strand) [Cy5-PmexAB-oprM probe 2]”, the binding is reported as “no binding”.
